Source: article PMC9668089

Target: p170, truncated ORF2-encoded protein of aa 439-608 from hepatitis E virus CCJD-517 (hepatitis E virus CCJD-517 (HEV-3))
Test: non-reducing SDS-PAGE

p170, truncated ORF2-encoded protein of aa 439-608 from hepatitis E virus CCJD-517 (domain or fragment)
stoichiometry N: 2
